{"source": "patent US20080280346A1", "about": "(published 2008)", "target": "T1, α-amylase", "T1 construct": "Coated on ELISA plates at 200 µg/ml in PBS", "test": "ELISA, plate coated with α-amylase, dimer compared with monomeric VamyHlyA", "data": [{"binder": "VamyZHlyA (VHH, Non-covalent homodimer through the GCN4 leucine zipper; one monomer chain is given., also called dimeric VHH-HlyA polypeptide; VHH-ZEHlyA hybrid) VHH: QVQLVESWGGSVQAGGSLRLSCTAPGFTSNSCRMDWYRQAAGKQREWVSSISTDGRTSYADSVKGRFTISKDKAKDTVYLQMNSLKPEDTAIYYCAVRTNGYRPQSHEFRYWGPGTQVTVSS", "values": [{"measurement": "fold increase in functional affinity (avidity) against the monomeric form", "value": 10, "unit": "fold"}]}]}
